Among the data in patent US20150299276A1 are IC50 (half-blocking dose) of ACh-gated current, Xenopus oocytes and Ratio (IC50 of TxIB(G) / IC50 of TxIB) values, retold here.

Experiment [1] deals with rat α6/α3β4 nAChR (rat), P12392. As to the kind of experiment: cell-based or functional assay.
Experiment [2] addresses rat α6/α3β2β3 nAChR (rat), P12390. As to the kind of experiment: cell-based or functional assay.

With GCCSDPPCRNKHPDLC (modifications not checked) [α-conotoxin TxIB/Txd4], the IC50 (half-blocking dose) of ACh-gated current, Xenopus oocytes in experiment [1] is greater than 10 µM. For the same molecule, in experiment [2], the IC50 (half-blocking dose) of ACh-gated current, Xenopus oocytes is 28.4 nM and the Ratio (IC50 of TxIB(G) / IC50 of TxIB) worked out at 1.

Molecule GCCSDPPCRNKHPDLCG (modifications not checked) [α-conotoxin TxIB/Txd4(G)] returned an IC50 (half-blocking dose) of ACh-gated current, Xenopus oocytes in experiment [1] greater than 10 µM. Besides, in experiment [2], the IC50 (half-blocking dose) of ACh-gated current, Xenopus oocytes turned out to be 247 nM and the Ratio (IC50 of TxIB(G) / IC50 of TxIB) came out at 8.7.
